Patent US20220267369A1

Assays:
[1] = target: Protein A ligand of MabSelect Sure resin (GE Healthcare, Chicago, IL); experiment: separation factor on Protein A MabSelect Sure against mAb2; Strip: 100 mM acetic acid
[2] = target: Protein A ligand of MabSelect Sure resin (GE Healthcare, Chicago, IL); experiment: separation factor on Protein A MabSelect Sure against mAb1; Equil/wash: 10 mM NaPhosphate, pH 6.5
[3] = target: Protein A ligand of MabSelect Sure resin (GE Healthcare, Chicago, IL); experiment: separation factor on Protein A MabSelect Sure against mAb1; Strip: 100 mM acetic acid
[4] = target: Protein A ligand of MabSelect Sure resin (GE Healthcare, Chicago, IL); experiment: resin slurry plate partitioning on Protein A MabSelect Sure; High salt wash: 10 mM NaPhosphate, pH 6.5, 0.5M NaCl
[5] = target: Protein A ligand of MabSelect Sure resin (GE Healthcare, Chicago, IL); experiment: separation factor on Protein A MabSelect Sure against mAb2; Equil/wash: 10 mM NaPhosphate, pH 6.5
[6] = target: Protein A ligand of MabSelect Sure resin (GE Healthcare, Chicago, IL); experiment: separation factor on Protein A MabSelect Sure against mAb1; Elute: 20 mM NaAcetate, pH 3.5
[7] = target: Protein A ligand of MabSelect Sure resin (GE Healthcare, Chicago, IL); experiment: separation factor on protein A resin against mAb3, loading condition
[8] = target: Protein A ligand of MabSelect Sure resin (GE Healthcare, Chicago, IL); experiment: resin slurry plate partitioning on Protein A MabSelect Sure; Elute: 20 mM NaAcetate, pH 3.5
[9] = target: Protein A ligand of MabSelect Sure resin (GE Healthcare, Chicago, IL); experiment: resin slurry plate partitioning on Protein A MabSelect Sure; Strip: 100 mM acetic acid
[10] = target: Protein A ligand of MabSelect Sure resin (GE Healthcare, Chicago, IL); experiment: separation factor on Protein A MabSelect Sure against mAb1; High salt wash: 10 mM NaPhosphate, pH 6.5, 0.5M NaCl
[11] = target: Protein A ligand of MabSelect Sure resin (GE Healthcare, Chicago, IL); experiment: separation factor on Protein A MabSelect Sure against mAb2; Elute: 20 mM NaAcetate, pH 3.5
[12] = target: Protein A ligand of MabSelect Sure resin (GE Healthcare, Chicago, IL); experiment: separation factor on Protein A MabSelect Sure against mAb2; High salt wash: 10 mM NaPhosphate, pH 6.5, 0.5M NaCl
[13] = target: Protein A ligand of MabSelect Sure resin (GE Healthcare, Chicago, IL); experiment: resin slurry plate partitioning on Protein A MabSelect Sure; Equil/wash: 10 mM NaPhosphate, pH 6.5

- log α (log KP PLBL2 - log KP mAb2) [1]: 0
- log α (log KP PLBL2 - log KP mAb1) [2]: -2
- log α (log KP PLBL2 - log KP mAb1) [3]: 0
- log KP (partition coefficient, bound/free on resin) [4]: 0
- log α (log KP PLBL2 - log KP mAb2) [5]: -2
- log α (log KP PLBL2 - log KP mAb1) [6]: 0
- log α (log KP PLBL2 - log KP mAb3) [7]: -2
- log KP (partition coefficient, bound/free on resin) [8]: 0
- log KP (partition coefficient, bound/free on resin) [9]: 0
- log α (log KP PLBL2 - log KP mAb1) [10]: -2
- log α (log KP PLBL2 - log KP mAb2) [11]: -0.3
- log α (log KP PLBL2 - log KP mAb2) [12]: -2
- log KP (partition coefficient, bound/free on resin) [13]: 0
Substance: phospholipase B-like 2 (PLBL2) (enzyme)
